Experimental data: patent US20200024330A1

Legend:
[1] = target: HIV-1 92BR020 envelope protein (Env) on pseudotyped virus (HIV-1 isolate 92BR020); assay: cell-based or functional assay
[2] = target: HIV-1 APV-17 envelope glycoprotein (Env) on pseudovirus (HIV-1); assay: cell-based or functional assay
[3] = target: HIV-1 Env of isolate ZM214 (HIV-1); assay: cell-based or functional assay
[4] = target: HIV-1 Env of isolate ZM249 (HIV-1); assay: cell-based or functional assay
[5] = target: HIV-1 JR-CSF Env, wild type (pseudovirus) (HIV-1 JR-CSF) (UniProt P20871); assay: cell-based or functional assay
[6] = target: MuLV envelope protein (control pseudovirus) (MuLV); assay: cell-based or functional assay
[7] = target: HIV-1 Env of isolate 92RW021 (HIV-1); assay: cell-based or functional assay
[8] = target: HIV-1 Env of isolate 92RW024 (HIV-1); assay: cell-based or functional assay
[9] = target: HIV-1 Env of isolate MGRM-F1-020 (clade F), on pseudovirus (HIV-1); assay: cell-based or functional assay
[10] = target: HIV-1 envelope glycoprotein (Env) of isolate MGRM-Chronic-B-017, on pseudovirus (HIV-1); assay: cell-based or functional assay
[11] = target: HIV-1 92RW020 Env (clade A pseudovirus) (HIV-1); assay: cell-based or functional assay
[12] = target: HIV-1 92UG005 Env (clade D pseudovirus) (HIV-1); assay: cell-based or functional assay
[13] = target: HIV-1 92UG024 Env (clade D pseudovirus) (HIV-1); assay: cell-based or functional assay
[14] = target: HIV-1 CMU02 Env (clade AE pseudovirus) (HIV-1); assay: cell-based or functional assay
[15] = target: HIV-1 MGRM-AG-005 Env (clade AG pseudovirus) (HIV-1); assay: cell-based or functional assay
[16] = target: HIV-1 MGRM-C-027 Env (clade C pseudovirus) (HIV-1); assay: cell-based or functional assay
[17] = target: HIV-1 NL43 Env (clade B pseudovirus) (HIV-1); assay: cell-based or functional assay
[18] = target: HIV-1 Env of isolate 92BR020 (clade B) (HIV-1); assay: cell-based or functional assay
[19] = target: HIV-1 Env of isolate APV17 (clade B) (HIV-1); assay: cell-based or functional assay
[20] = target: HIV-1 Env of isolate MGRM-C-027 (clade C) (HIV-1); assay: cell-based or functional assay
[21] = target: HIV-1 Env of isolate NL43 (clade B) (HIV-1); assay: cell-based or functional assay
[22] = target: aMLV envelope (negative control pseudovirus) (aMLV); assay: cell-based or functional assay
[23] = target: HIV-1 JR-CSF Env E321aA (HIV-1 isolate JR-CSF) (UniProt P20871); assay: cell-based or functional assay
[24] = target: HIV-1 JR-CSF Env I420A (HIV-1 (isolate JR-CSF)) (UniProt P20871); assay: cell-based or functional assay
[25] = target: HIV-1 JR-CSF Env N262A (HIV-1 JR-CSF) (UniProt P20871); assay: cell-based or functional assay
[26] = target: HIV-1 JR-CSF Env S334A (HIV-1 isolate JR-CSF) (UniProt P20871); assay: cell-based or functional assay
[27] = target: HIV-1 JR-CSF Env T320A (HIV-1 isolate JR-CSF) (UniProt P20871); assay: cell-based or functional assay
[28] = target: Endo H treated JR-FL gp120 (HIV-1 (isolate JR-FL)); assay: ELISA on coated gp120; EC50 by nonlinear regression
[29] = target: JR-FL gp120 ΔV3 (HIV-1 (isolate JR-FL)); assay: as above
[30] = target: HIV-1 envelope glycoprotein (Env) of isolate APV_13, on pseudovirus (HIV-1); assay: cell-based or functional assay
[31] = target: HIV-1 Env of isolate 92UG005 (subtype D), on pseudovirus (HIV-1); assay: cell-based or functional assay
[32] = target: HIV-1 Env of isolate 92UG037 (pseudovirus) (HIV-1); assay: cell-based or functional assay
[33] = target: HIV-1 Env of isolate 92UG046 (subtype D), on pseudovirus (HIV-1); assay: cell-based or functional assay
[34] = target: HIV-1 Env of isolate 93TH305 (HIV-1); assay: cell-based or functional assay
[35] = target: HIV-1 Env of isolate MG RM-A-011 (pseudovirus) (HIV-1); assay: cell-based or functional assay
[36] = target: HIV-1 Env of isolate MGRM-D-001 (subtype D), on pseudovirus (HIV-1); assay: cell-based or functional assay
[37] = target: HIV-1 Env of isolate MGRM-D-002 (subtype D), on pseudovirus (HIV-1); assay: cell-based or functional assay

Substance: 1443_C16 (PG16) (TCN-116) (antibody)
- IC50, pseudovirus neutralization, 1 hour Virus/Ab Incubation [1]: > 50 µg/mL
- IC50, pseudovirus neutralization, 18 hour Virus/Ab Incubation [1]: > 50 µg/mL
- IC90 (pseudovirus neutralization) [2]: > 50 µg/mL
- IC50, pseudovirus neutralization (TZM-bl) [3]: > 25 µg/mL
- IC50, pseudovirus neutralization (TZM-bl) [4]: < 0.01 µg/mL
- IC50 (ug/ml), neutralization [5]: 0.001 µg/mL
- IC50, pseudovirus neutralization (TZM-bl), control virus [6]: > 25 µg/mL

Substance: 1495_C14 (PGC14) (antibody)
- IC50, pseudovirus neutralization, 1 hour Virus/Ab Incubation [1]: 1.17 µg/mL
- IC50, pseudovirus neutralization, 18 hour Virus/Ab Incubation [1]: 0.244 µg/mL

Substance: 1496_C09 (PG9) (TCN-109) (antibody)
- IC50 [7]: 0.027 µg/mL
- IC50 [8]: 0.258 µg/mL
- IC50 (µg/mL), single-round pseudovirus neutralization [9]: 6.4 µg/mL
- IC50 (ug/ml), neutralization [5]: 0.006 µg/mL
- IC50, pseudovirus neutralization [10]: 0.688 µg/mL

Substance: 4877_D15 (PGT-122) (antibody)
- Neutralization by PGT-122, IC50 [11]: 0.0072 µg/mL
- Neutralization by PGT-122, IC80 [11]: 0.0407 µg/mL
- Neutralization by PGT-122, IC90 [11]: 0.113 µg/mL
- Neutralization by PGT-122, IC95 [11]: 0.289 µg/mL
- Neutralization by PGT-122, IC50 [12]: > 10 µg/mL
- Neutralization by PGT-122, IC80 [12]: > 10 µg/mL
- Neutralization by PGT-122, IC90 [12]: > 10 µg/mL
- Neutralization by PGT-122, IC95 [12]: > 10 µg/mL
- Neutralization by PGT-122, IC50 [13]: > 10 µg/mL
- Neutralization by PGT-122, IC80 [13]: > 10 µg/mL
- Neutralization by PGT-122, IC90 [13]: > 10 µg/mL
- Neutralization by PGT-122, IC95 [13]: > 10 µg/mL
- Neutralization by PGT-122, IC50 [14]: > 10 µg/mL
- Neutralization by PGT-122, IC80 [14]: > 10 µg/mL
- Neutralization by PGT-122, IC90 [14]: > 10 µg/mL
- Neutralization by PGT-122, IC95 [14]: > 10 µg/mL
- Neutralization by PGT-122, IC50 [15]: > 10 µg/mL
- Neutralization by PGT-122, IC80 [15]: > 10 µg/mL
- Neutralization by PGT-122, IC90 [15]: > 10 µg/mL
- Neutralization by PGT-122, IC95 [15]: > 10 µg/mL
- Neutralization by PGT-122, IC50 [16]: 0.0388 µg/mL
- Neutralization by PGT-122, IC80 [16]: 0.499 µg/mL
- Neutralization by PGT-122, IC90 [16]: > 10 µg/mL
- Neutralization by PGT-122, IC95 [16]: > 10 µg/mL
- Neutralization by PGT-122, IC50 [17]: > 10 µg/mL
- Neutralization by PGT-122, IC80 [17]: > 10 µg/mL
- Neutralization by PGT-122, IC90 [17]: > 10 µg/mL
- Neutralization by PGT-122, IC95 [17]: > 10 µg/mL

Substance: 5147_N06 (PGT-130) (antibody)
- neutralization IC50 [18]: 1.12 µg/mL
- neutralization IC80 [18]: > 10 µg/mL
- neutralization IC90 [18]: > 10 µg/mL
- neutralization IC95 [18]: > 10 µg/mL
- neutralization IC50 [19]: > 10 µg/mL
- neutralization IC80 [19]: > 10 µg/mL
- neutralization IC90 [19]: > 10 µg/mL
- neutralization IC95 [19]: > 10 µg/mL
- neutralization IC50 [20]: 0.0052 µg/mL
- neutralization IC80 [20]: 0.0318 µg/mL
- neutralization IC90 [20]: 0.106 µg/mL
- neutralization IC95 [20]: 0.464 µg/mL
- neutralization IC50 [21]: > 10 µg/mL
- neutralization IC80 [21]: > 10 µg/mL
- neutralization IC90 [21]: > 10 µg/mL
- neutralization IC95 [21]: > 10 µg/mL
- neutralization IC50 [22]: > 10 µg/mL
- neutralization IC80 [22]: > 10 µg/mL
- neutralization IC90 [22]: > 10 µg/mL
- neutralization IC95 [22]: > 10 µg/mL

Substance: PGT-121 (antibody)
- Fold IC50 increase relative to wild-type [23]: 0.3 fold
- Fold IC50 increase relative to wild-type [24]: 3.3 fold
- Fold IC50 increase relative to wild-type [25]: 1.1 fold
- Fold IC50 increase relative to wild-type [26]: > 50 fold
- Fold IC50 increase relative to wild-type [27]: 1.2 fold
- EC50 [28]: > 10 µg/mL
- EC50 [29]: > 10 µg/mL

Substance: PGT-122 (antibody)
- Fold IC50 increase relative to wild-type [23]: 0.4 fold
- Fold IC50 increase relative to wild-type [24]: 3.5 fold
- Fold IC50 increase relative to wild-type [25]: 1.1 fold
- Fold IC50 increase relative to wild-type [26]: > 50 fold
- Fold IC50 increase relative to wild-type [27]: 0.7 fold

Substance: PGV04 (antibody)
- IC50 [7]: 0.038 µg/mL
- IC50 [8]: 0.31 µg/mL
- IC50 (µg/mL), single-round pseudovirus neutralization [9]: 5.99 µg/mL
- IC50, pseudovirus neutralization [30]: 1.23 µg/mL
- IC50, pseudovirus neutralization [10]: 0.129 µg/mL

Substance: VRC01 (antibody)
- IC50, pseudovirus neutralization [31]: 0.576 µg/mL
- IC50 (µg/mL), pseudovirus neutralization [32]: 0.245 µg/mL
- IC50, pseudovirus neutralization [33]: 12.7 µg/mL
- IC50 [34]: 0.243 µg/mL
- IC50 (µg/mL), pseudovirus neutralization [35]: 0.273 µg/mL
- IC50, pseudovirus neutralization [36]: > 50 µg/mL
- IC50, pseudovirus neutralization [37]: 0.252 µg/mL

Substance: b12 (antibody)
- IC90 (pseudovirus neutralization) [2]: > 50 µg/mL
